Measurements: patent publication US20150299263A1 (FACTOR THERAPEUTICS, published 2015)
Each block holds one binder with its values, some of them ahead of it. Where no end group is shown, it is not given here.

How the values were obtained:
[1] = molecular target: T1, Human receptor grade IGF-II (insulin-like growth factor II) (human, UniProt P01344 25-91); test: VN-peptide array, ligand overlay, immunoblot/ECL, TotalLab spot intensity
T1 construct: Bought recombinant protein, overlaid in solution on the VN-peptide array
T1 sequence (P01344 25-91 limits assumed): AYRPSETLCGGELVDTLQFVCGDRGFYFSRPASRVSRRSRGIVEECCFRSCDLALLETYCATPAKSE
Procedure: Methanol or ethanol was used to enhance the rehydration of peptide spots that might be hydrophobic. The peptides spotted onto the membranes were activated by incubating in 3 mL of 70% ethanol for five mins. The membranes were subsequently washed three times, 10 minutes each, in 10 mL TBS (Tris Buffered Saline; 8 g NaCl, 0.2 g KCl and 6.1 g Tris Base into 1000 mL of milliQ water, pH 7) with gentle rocking. Membrane blocking was performed by incubating in 10 mL casein-based membrane blocking buffer (MBS; Sigma-Aldrich) overnight at 4° C. The following day, the membranes were washed twice, 10 minutes each, in 10 mL TBS-T (TBS+0.05% Tween-20; pH 7).
Ligands used to test binding to VN-peptides were IGFBP-3, IGFBP-5 and IGF-II. For ligand binding, four separate solutions of 1 μg/mL ligand in 10 mL MBS buffer were prepared and each membrane was incubated in one of the four ligand solutions overnight at 4° C., with gentle rocking. […] The following day, the membranes were washed three times, 10 minutes each, in 10 mL TBS-T.
The binding of the ligands to peptides within the membrane was detected using immunoblotting. The membranes were incubated overnight at 4° C. with 10 mL primary antibody solution (in MBS buffer) targeting the respective ligands. The antibodies used were anti-IGFBP-3 (1:10,000), anti-IGFBP-5 (1:10,000) and anti-IGF-II (1:5000) to detect IGFBP-3, IGFBP-5 and IGF-II respectively. The following day, the membranes were washed three times, 10 minutes each, in 10 mL TBS-T and incubated with 10 mL HRP-conjugated secondary IgG antibody diluted 1:15,000 in MBS buffer for 1 hour at room temperature. Following a further three washes of 10 minutes each, the peptide spots were visualized using ECL. The membranes were exposed onto x-ray films and developed using a film processor (AGFA CP 1000), or were imaged directly using the ChemiDoc™ XRS system (BioRad).

[2] = molecular target: T2, Human receptor grade IGFBP-5 (insulin-like growth factor binding protein 5) (human, UniProt P24593 21-272); test: VN-peptide array, ligand overlay, immunoblot/ECL
T2 construct: Bought recombinant protein, overlaid in solution on the VN-peptide array
T2 sequence (P24593 21-272 limits assumed): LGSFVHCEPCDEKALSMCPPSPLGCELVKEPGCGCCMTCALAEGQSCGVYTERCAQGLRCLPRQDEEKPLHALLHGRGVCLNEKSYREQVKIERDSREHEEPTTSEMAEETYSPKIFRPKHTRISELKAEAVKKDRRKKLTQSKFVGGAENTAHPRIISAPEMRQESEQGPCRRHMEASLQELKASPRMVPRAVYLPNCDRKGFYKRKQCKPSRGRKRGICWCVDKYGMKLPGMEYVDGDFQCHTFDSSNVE

[3] = molecular target: T3, Human receptor grade IGFBP-3 (insulin-like growth factor binding protein 3) (human, UniProt P17936 28-291); test: VN-peptide array, ligand overlay, immunoblot/ECL
T3 construct: Bought recombinant protein, overlaid in solution on the VN-peptide array
T3 sequence (P17936 28-291 limits assumed): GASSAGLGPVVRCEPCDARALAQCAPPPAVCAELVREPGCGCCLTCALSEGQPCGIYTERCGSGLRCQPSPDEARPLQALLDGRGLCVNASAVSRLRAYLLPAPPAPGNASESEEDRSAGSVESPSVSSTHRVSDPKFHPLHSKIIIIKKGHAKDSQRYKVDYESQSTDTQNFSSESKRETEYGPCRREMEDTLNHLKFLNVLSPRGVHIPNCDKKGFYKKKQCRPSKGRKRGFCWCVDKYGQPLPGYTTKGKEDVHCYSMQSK

[4] = molecular target: T1, Human receptor grade IGF-II …; test: VN-peptide array, ligand overlay, immunoblot/ECL
[5] = molecular target: T3, Human receptor grade IGFBP-3 …; test: rests on the VN-peptide array
[6] = molecular target: T1, Human receptor grade IGF-II …; test: rests on the VN-peptide array

Intensity (against -ve control) [1]: 12 fold over negative controls
binding result [2]: binds
binding result [3]: binds
B1: VN-peptide 1B (array grid A14) (peptide)
peptide: DELCSYYQSCCTDYTA
modifications: not fully specified (N-terminus); cysteine pairing not given here; also: free end capped by acetylation, immobilised on cellulose membrane (SPOT synthesis)

binding result [2]: no binding (tested: 1 µg/mL ligand)
binding result [3]: no binding (tested: 1 µg/mL ligand)
binding result [4]: no binding (tested: 1 µg/mL ligand)
B2: Non-binding negative control VN-peptide (KTYLFKGSQYWRFEDG) (peptide)
peptide: KTYLFKGSQYWRFEDG
modifications: also: capped by acetylation and immobilised on array, free peptide in migration assays
notes: On the array it was immobilised and capped by acetylation; in the migration assays it was a free peptide; also called Pneg; negative peptide

binding result [5]: binds
binding result [6]: binds
B3: VN peptide P8 (RVNLRTRRVDTVDPPYPRS) (peptide)
peptide: RVNLRTRRVDTVDPPYPRS
notes: Free synthetic peptide (Mimotopes) in the migration and growth assays; The array carried only its overlapping 16-mers 8A-8D; also called Peptide 8; motif-8 mimic
